132 substances from the supplement of paper PMC12042874 can be followed below.

± gives the uncertainty stated by the source.

This data set in a line: amyloid nucleation score (Sup35N fusion, yeast selection) (log enrichment); library NNK3; higher = more nucleation; inactive = no reads after selection. In short, it runs like this: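 Nucleation score is defined as the DiMSum log enrichment of output over input reads, with centring on the mode score of non-aggregating sequences. A minimum of 100 input reads was required for each sequence. Reads came from Illumina sequencing of plasmid inserts from psi-negative yeast expressing Sup35N fused to peptides of 20 random codons, induced with 100 μM copper sulfate for 24 hours and grown 7 days at 30°C on medium lacking adenine and uracil.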
With RKPHMTL, the amyloid nucleation score entry is “inactive”.
With RKSGYFP, the amyloid nucleation score entry was “inactive”.
The result for RKSGYYLIVMRALNREPTPV reads -0.363 ± 1.4; that for RKTSSY, -0.725 ± 0.84.
As to RKVGRLIPFHFCSN, the amyloid nucleation score entry was “inactive”.
Turning to RKVKILWNDTLTFRT, the amyloid nucleation score result is “inactive”.
The result for RLARADNILLGRNSVSSSVK reads “inactive”; that for RLFLGVGCMS, “inactive”.
In the case of RLFLINSGASDPNSQMSNLR, the amyloid nucleation score result is “inactive”.
Regarding RLGCCGVSSEWVCRKYLLRG, the amyloid nucleation score result was “inactive”.
The value for RLGWFYRNIYLLTVEVGRGR was “inactive”; that for RLICLMGSLW was 1.34 ± 0.081.
Take RLIIYSFARSQL: the amyloid nucleation score result is “inactive”.
In the case of RLIWFE, the amyloid nucleation score entry was “inactive”.
As to RLKLMRP, the amyloid nucleation score result is “inactive”.
RLKMGLSN showed an amyloid nucleation score of -0.846 ± 0.8.
Regarding RLLKFASYFVKDSRYNPDCF, the amyloid nucleation score result was “inactive”.
The value for RLMLLVTPAISFMSF was “inactive”; that for RLPLLTTKSGMSDTYSAP was “inactive”; that for RLRLGAAGRQGSEVVYNWSM was 1.23 ± 0.12.
Turning to RLSIAASFLSLFRYVDFNSL, the amyloid nucleation score result was “inactive”.
The result for RLSMNLNTVHVKHKECVPYR reads “inactive”.
Consider RLTGEMRRCVVHGKRSHRVF, for which the amyloid nucleation score result was “inactive”.
With RLYLVGYRLIRCRFGILGAC, the amyloid nucleation score entry is “inactive”.
The substance RLYQFCFDENSIQLFIYP gave an amyloid nucleation score of 2.35 ± 0.069.
The result for RLYVPLLVDVLWEKCKHSNV reads “inactive”.
RMAEVFLLIDCNFFYFDRYM displayed an amyloid nucleation score of 2.02 ± 0.092.
The result for RMDETWNITRKNWQDSY reads “inactive”.
The value for RMDNCSGDI was “inactive”; that for RMESTYGYVLDVSIEVLWGI was “inactive”; that for RMFMWENEMDLSTSRVKGYG was “inactive”.
For the substance RMFVI, the amyloid nucleation score entry was “inactive”.
The value for RMHGETARWLGAQIWSDRSC was “inactive”; that for RMILTSQLLQKENGLSVTIN was 0.853 ± 0.2; that for RMIRNIFGSHAVLCFGCKC was 2.9 ± 0.068.
RMLGLNQYCSMLICTIVNFS yielded an amyloid nucleation score of 1.19 ± 0.11.
The result for RMNYNAYRIFLTPISDWCNL reads “inactive”; that for RMVRRDRNKYSILLGLVMSN, “inactive”.
As for RNATIALCAGWVIYDSVFKG, the amyloid nucleation score worked out at 2.27 ± 0.073.
The value for RNGDCLWIFR was 0.732 ± 0.28; that for RNHGGNDSDILRRSESMSDR was “inactive”.
On to RNKSSNFREHPVTSRITCRS, for which the amyloid nucleation score entry was “inactive”.
The value for RNLKN was “inactive”; that for RNLRYICRFALGGVARLWCG was 0.197 ± 0.55.
Regarding RNLVWA, the amyloid nucleation score result was “inactive”.
The value for RNTDLL was “inactive”; that for RNVGKGNAVQSGPAWIERS was “inactive”; that for RPEAAYSVKYLVLV was “inactive”.
The result for RPFYLWNLNIICCPFIQTVK reads 2.39 ± 0.072.
The result for RPTTIGINNDW reads “inactive”; that for RPYHSEKYDKFVDAMSFWCW, “inactive”; that for RQCCCSLKHIVWQPLGLCRK, “inactive”.
As to RQGCKVCRWLRSKSLLLRRM, the amyloid nucleation score entry was “inactive”.
On to RQGPIYPWVLC, for which the amyloid nucleation score result was “inactive”.
The result for RQGRYEHQRGPFSLVSQVG reads -0.083 ± 1.1; that for RQIMGQKRKNRQESFGFVGC, “inactive”; that for RQSCGFILQWDKLCFSRDRT, 0.879 ± 0.25.
Take RQVFNAIAFFVLHR: the amyloid nucleation score was -0.299 ± 0.69.
The value for RRARFFVHAQVRWVCFWAMK was “inactive”.
RRAYVKQGVEFRIWNCYYWL had an amyloid nucleation score of 0.667 ± 0.16.
The result for RRCNVMLKNDLNCLPSSLFI reads 0.322 ± 0.62; that for RRCPYIRESIYKFSLAKCSF, 0.014 ± 0.31.
For RREGGTPIAHPLLGPGP, the amyloid nucleation score is -0.076 ± 0.73.
The result for RRFCRYVYEMG reads “inactive”; that for RRHKLW, “inactive”.
Take RRHLITSVHQTLIVVGFDPR: the amyloid nucleation score entry was “inactive”.
The result for RRIFCLLVANDRLSMRVKCP reads “inactive”.
Substance RRIPITFIACNCTRTCWQMI gave an amyloid nucleation score of 0.394 ± 0.23.
The result for RRKRSQSE reads “inactive”.
The result for RRLCRYCDVILRNFMHKIQW reads “inactive”; that for RRLPPIRCSHNLNSVPQD, “inactive”.
The result for RRLPSELYMSYHYHFFFKSG reads “inactive”; that for RRLSM, “inactive”; that for RRMTSYFL, “inactive”.
With RRPLVWKFFQNLGTMN, the amyloid nucleation score entry is “inactive”.
The result for RRPVRSSNGALTLICRDREF reads “inactive”.
The result for RRSLHCIDCSRFPLIFHCTV reads “inactive”; that for RRSSRSRRHAKRRRAIVRCG, “inactive”.
The result for RRSTQLKRQYKSL reads “inactive”; that for RRTDGATEACISTSGPEYIV, “inactive”; that for RRVNFVNYSLWV, 1.6 ± 0.1.
Turning to RRWCLVAIIPIELNAGTEQH, the amyloid nucleation score result is “inactive”.
The value for RRYSRIRYRRKLVNWLFYIM was “inactive”; that for RSCGVFHQRARVHCCIKSLP was “inactive”.
The result for RSCSLWVY reads “inactive”; that for RSCYEVLRHGREL, “inactive”.
Take RSDENWRMTYWRAGCRVLDV: the amyloid nucleation score entry was “inactive”.
The result for RSDVYCWDNYRLEGSGQSSL reads “inactive”.
The result for RSFHNHHWTVNY reads 1.46 ± 0.11; that for RSFSNSDRMVSNLQFCYYFG, 2.77 ± 0.053; that for RSGFRLLIWYRKQMICLCNL, “inactive”.
For RSGKVSFFIGYNVVGLMRFR, the amyloid nucleation score result is “inactive”.
The value for RSIVNSRALGLAADRRLEFS was “inactive”; that for RSIYCLRVNTGYMNKFVVLR was “inactive”; that for RSLHWNLGLCIWYNEFRDLM was 1.8 ± 0.074.
The value for RSLSRNFSLCMGGSDRSGGL was “inactive”.
The result for RSMTWFSQDYVSVHRVL reads “inactive”; that for RSPTVL, “inactive”; that for RSQEVKTVGSLWQFFVSVLG, “inactive”.
In the case of RSRGWDWFEVSIIVRCSMWD, the amyloid nucleation score result was “inactive”.
The result for RSSDSDMSLECKAVE reads “inactive”; that for RSSLLSRVLSEITHSWQLCA, “inactive”.
Take RSSSIYYICFQTFTRCNYPV: the amyloid nucleation score entry was “inactive”.
RSTVHRYSCDNCVEVIISKQ came in with an amyloid nucleation score of 1.18 ± 0.12.
With RSVTNGQSCLRTVGILSFLA, the amyloid nucleation score result is “inactive”.
The value for RSWQEMFCEWSSALDWDWSV was “inactive”.
For the substance RSYLSEHSNYGAKSSYYGIF, the amyloid nucleation score result is “inactive”.
The value for RSYTDMCP was “inactive”; that for RTFRSFSQVYRPILRRGHSG was “inactive”.
The value for RTIYTLPSCEIEGDLWHLSG was “inactive”; that for RTLFYFLDDSQFVLV was “inactive”.
The result for RTLNYFSHVCQSSINWSSLV reads 0.743 ± 0.16; that for RTLQVWHDWVVG, -0.555 ± 0.69; that for RTNDHVNW, “inactive”.
RTRFQITCQEETTCPRFS came in with an amyloid nucleation score of 0.92 ± 0.16.
The result for RTSLGSCKYHLVFFYRVLVW reads “inactive”; that for RTSLNGTLGVLSRYGWNISE, “inactive”; that for RTSMPTTHGGLVLQSWDYRP, “inactive”.
The result for RTTVVYTLNLSGTNRRPCYN reads 1.66 ± 0.084.
The result for RVFIDRDRP reads “inactive”; that for RVITCWSQQCWHDRCLVCGK, “inactive”; that for RVKYL, “inactive”.
On to RVLSCECKVGRKWICTELFV, for which the amyloid nucleation score result is “inactive”.
Take RVLVWTFYEKAKNCAFCRGV: the amyloid nucleation score entry was “inactive”.
The result for RVLYGTICIFVGYFLVMSCV reads -0.21 ± 0.57; that for RVLYPVKVYRNDKMADWNN, “inactive”; that for RVMRSDDVWMCSSLHDFCAV, “inactive”.
The value for RVNNGT was “inactive”.
The result for RVPGVCVYLCNEVACSTLCI reads 2.03 ± 0.079.
As to RVPYFYFPPLR, the amyloid nucleation score result is “inactive”.
The value for RVREPSVAVRECWCYLGDAV was “inactive”.
The value for RVVGRRSNYFVFLFRTLGRN was “inactive”.
